B1: decorin from bovine articular cartilage (Sigma) (other, UniProt P21793 31-360, looked up)
chain: DEASGIGPEEHFPEVPEIEPMGPVCPFRCQCHLRVVQCSDLGLEKVPKDLPPDTALLDLQNNKITEIKDGDFKNLKNLHTLILINNKISKISPGAFAPLVKLERLYLSKNQLKELPEKMPKTLQELRVHENEITKVRKSVFNGLNQMIVVELGTNPLKSSGIENGAFQGMKKLSYIRIADTNITTIPQGLPPSLTELHLDGNKITKVDAASLKGLNNLAKLGLSFNSISAVDNGSLANTPHLRELHLNNNKLVKVPGGLADHKYIQVVYLHNNNISAIGSNDFCPPGYNTKKASYSGVSLFSNPVQYWEIQPSTFRCVYVRAAVQLGNYK
modifications: proteoglycan; dermatan sulfate glycosaminoglycan chain on the core protein (site not stated for this preparation)
B2: biglycan from bovine articular cartilage (Sigma) (other, UniProt P21809 38-369, looked up)
chain: DEEASGAETTSGIPDLDSLPPTYSAMCPFGCHCHLRVVQCSDLGLKAVPKEISPDTTLLDLQNNDISELRKDDFKGLQHLYALVLVNNKISKIHEKAFSPLRKLQKLYISKNHLVEIPPNLPSSLVELRIHDNRIRKVPKGVFSGLRNMNCIEMGGNPLENSGFEPGAFDGLKLNYLRISEAKLTGIPKDLPETLNELHLDHNKIQAIELEDLLRYSKLYRLGLGHNQIRMIENGSLSFLPTLRELHLDNNKLSRVPAGLPDLKLLQVVYLHTNNITKVGVNDFCPVGFGVKRAYYNGISLFNNPVPYWEVQPATFRCVTDRLAIQFGNYKK
modifications: proteoglycan; glycosaminoglycan chains on the core protein (sites not stated for this preparation)

How the values were obtained:
[1] = target: T1, mouse WISP-1-IgG (chimeric recombinant mouse WISP-1 bearing a human immunoglobulin Fc fragment tag) (mouse); test: competition solid phase assay: 0.25 nM WISP-1-IgG on coated human skin fibroblast conditioned media, soluble decorin varied
T1 construct: also called mWISP-1-IgG; WISP-1-Fc
Experimental: (§1) Decorin and biglycan were coated to microtiter wells overnight. Non-specific binding sites were saturated and 0.25 nM of mWISP-1-IgG was incubated for 2 hours. The wells were washed and incubated with horseradish peroxidase conjugated anti-human IgG Fc′ (2 μg/ml) for 1 hour. After 6 washes with PBS containing 0.05% Tween-20, a signal was developed by the incubation of a chromogenic substrate. The color development was stopped by the addition of 1 M phosphoric acid and the O.D. at 450 nm was measured.
(§2) Fifty microliters of human skin fibroblast conditioned media were coated in wells of microtiter plates. Non-specific binding sites were saturated and 0.25 nM of WISP-1-IgG was incubated in the presence of various concentrations of decorin (filled circles) or biglycan (empty circles) (FIG. 5B) for 2 hours. The binding of mWISP-1-IgG was evaluated as described above.

[2] = target: T1, mouse WISP-1-IgG (chimeric recombinant …); test: competition solid phase assay: 0.25 nM WISP-1-IgG on coated human skin fibroblast conditioned media, soluble biglycan varied
Experimental: as §1, §2

T1 sequence (chain, as listed by the source mutant limits assumed): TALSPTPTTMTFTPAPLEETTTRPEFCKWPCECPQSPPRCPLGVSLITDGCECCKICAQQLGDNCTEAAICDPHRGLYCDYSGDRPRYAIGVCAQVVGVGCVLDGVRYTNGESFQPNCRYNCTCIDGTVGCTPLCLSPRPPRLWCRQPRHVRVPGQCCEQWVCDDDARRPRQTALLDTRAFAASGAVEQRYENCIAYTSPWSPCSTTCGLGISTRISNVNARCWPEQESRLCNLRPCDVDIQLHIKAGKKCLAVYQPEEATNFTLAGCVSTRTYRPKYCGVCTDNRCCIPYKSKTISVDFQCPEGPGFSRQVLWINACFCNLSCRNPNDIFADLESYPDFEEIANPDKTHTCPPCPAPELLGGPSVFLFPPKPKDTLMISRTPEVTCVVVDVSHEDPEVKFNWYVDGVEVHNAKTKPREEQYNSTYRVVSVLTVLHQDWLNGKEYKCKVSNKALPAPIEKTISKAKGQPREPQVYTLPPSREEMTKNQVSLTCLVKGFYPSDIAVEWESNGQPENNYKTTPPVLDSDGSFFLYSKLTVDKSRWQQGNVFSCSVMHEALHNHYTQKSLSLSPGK

| Binder | IC50 [1] [µg/mL] | IC50 [2] [µg/mL] |
| --- | --- | --- |
| B1 | 70 | – |
| B2 | – | 105 |

Reference: patent publication US20050054563A1 (Genentech, published 2005)
